In assay [1] the target is 5FAM-NRIP1_1068 peptide. The assay is described as follows: fluorescence polarisation. In general terms: Polarisation of emitted light reports the rotation of a fluorescent probe.
The target of assay [2] is 5FAM-PGC1α_144 coactivator peptide. The assay is described as follows: fluorescence polarisation.

For orientation: Kd means the equilibrium constant for the complex coming apart. A higher Kd goes with weaker binding. For the substance “PPARγ ligand binding domain (LBD), delipidated (domain or fragment)”, the Kd came to 8.24 µM in assay [1] and 2.01 µM in assay [2].

The values above are taken from article PMC9897460.
